From the domain aggregation screens of Martell et al. (2025)

Assay: soluble fraction after stress (log2 fold change); higher = more stays soluble; pooled small domains, quantitative proteomics
Conditions: stress: 75 degC
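Note: 20 min heating vs room temperature control held 20 min.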

| Sequence | soluble fraction (log2) |
| --- | --- |
| HMKLSIEDLAAELIRKIEAGDIGNEQGKMPSERELLAIYPVSRYTLRQALNKLSKMGWIYQMQGRGSYIRF | -1.48 |
| HMGPFYFDQDGKAYSGLLNRNGEILYFADPFNAAVKNTTKTIDGKTYTFNQNGRATSIDGIPLEPP | 0.0904 |
| HMSVLSVASKNQAINPGQVVALLKDGIKLNDDGRVEILDNNNNIRYNEKGNLLSIEERVKEFLDANPHFRQ | -0.399 |
| HMATAATGIINNNYVNVRSGPATTYNIVGRLDQGSSIEILGSKNDWYQIKTKQLNGWVKNDFINLQK | -0.283 |
| HMSLSVEESYKLLDISPSAGDEEITKKFRLLALKYHPDKNRSKIEWANNIMSRLNQAYSVIMSSRFESNAE | -1.6 |
| HMLAHSEFGARLRETRKRLGLSQSELGGDRYSGSYISHLESGRRAASAEVIEFLAGRLGVEVEELGM | -0.406 |
| HMTQEFIVPKVTGYTVEDAMNLSGVKDVFEITVDSTEKSDQPAGIILFQDPKDGSSRKSDLVIHVVVSAGS | -0.363 |
| HMNGAITLRVRPSDEGKRLDVFVVSQLTGYTRSFVAGLIGDRHFLVNGQPKKPGYRIKSSDTISGVIPAPA | -2.1 |
| HMHGESIPIPNILHKRYADAEQIVNNLRLEIEVTDTGYVRSLPPGAILEQTPGPGERVKSGHIIYVTINAA | -1.42 |
| HMDDAVSHPDAGHIVTVTKVSADGTAEVMYRGASWRAKTADGSPLTAGSARIVRVDGAALVVEP | 0.0931 |
| HMIIVMASSKKEDVAHVVHKIEELGYKAHVIVGVERTVVAAVGDERGKERLISLEALPHVEKVFPILK | -2.16 |
| HMRQYKEMPYRLFLIHLGKGLVDEVELSDKAKLTGKLKNGKIFITDNPRTENFKEQLLLHDVKVKEG | -0.329 |
| HMSNEIIFNQKSITRFLMNPENNSPMIYPLELGHEMKVIKKNNDWLNVTDEKTGLNGWVISDDFGLTKPEG | -0.118 |
| HMSEFGENLKKLRTARDLTQQELGAKVGLSKAVVSKYENGLGYPTFDVLIRIAAYFGVTTDYLLGV | -2.81 |
| HMHRAKRTKAQTQSSLESIEGIGPKTRKQLLVHFGGLAEVKAASVSELQKVKGISLDKAQKIYDFFHGS | -0.617 |
| HMVTEIDYGAFIKMTEEGNIGEVKIEDNQIVFTDKENKAIYKTGIMPDSDLTQRLYDSGAVFA | 0.128 |
| HMSMRILNHTVVKILKRYRIATDEQLQPLLDEAERSGRSLQDVVLDAKLVSETELTKLFADYAD | -3.66 |
| HMNFTVTDKNAVLYSNDNTKVYESPDINSKLVTTIAKDLPVNVTGITSNGWFRISLEGTYYVPGNGLEQR | -0.139 |
| HMSGTYIATVEAGSLDIYKSMTSNETIGKASRGDVFQILEDMGSGYARVSYNDVEGYMSIKTGDASIEEL | 0.113 |
| HMDVAAQITYAMRTMGVAPIPRNYELFYEAYIGSNPALTKELAALGSKATQEELDELGQQYF | -1.89 |
| HMTKYEGLSLDLIIDGVVITHNLKLAKLDMNWLLDRLKENGWDNPKDIFYAYIDTAGNFRFQPKLKASRTR | 0.473 |
| HMNAAYDEELDFIFSLSEKGKWEEAEAEIGLLLQKHPEDATLQRIGEWVTTQKILLRQQAVEDRIRS | -0.375 |
| HMNKDEFLRRLEDALSGEVPASVIRENLNYYADYLSQELGKGRTMDEIIEEIGEPNIVARTIINSAEAA | 0.184 |
| HMNNKSDLLFNHLRQRIATMENGTIFPSVRQLMTEYNVSQSTVSTAIRSLKELGLLEALSRQGMVVRKE | -1.15 |
| HMKPSKYTLAIDSIPVHVTRKQMKSIRLRVTPLGEVRVSAPYGVKDSEIVEMVRSRKLWIESQQRA | -2.34 |
| HMTDITSAITRLNKYNKSGTPLTIDSVTPEALQTLQAKVSSAFEIGAVNQQTYDDVTKDIATLQQYLSSA | 0.378 |

| Sequence | soluble fraction (log2) |
| --- | --- |
| HMGQQTVEPLSRRELEVLSLLAKGLSNQQIADRLVISVRTVKKHVENIHGKLGVQSRTQAVARARELGLV | -1.24 |
| HMPDLSGEEQQIVDILAQRGNLQINTLVVETDIPVHKMNAILFELEMKGVVRVLAGGMYQLL | -1.02 |
| HMQTASVRFADGQLEVKQKGLQRVSVYSLNGMTVANKAVQGQDYVTISLPRAAYIVKITTQNGSFTKVI | -2.18 |
| HMGSVVATLRKLIIDGHYPAGTRLAEIPVANALGVSRTPVRLAFRTLQQEGLLQTVGKRGIVVRAF | -1.28 |
| HMQPAALEAQVIKLVRLHAPIKARQLATILANEFGQHVDRSTVNSLLYQLRAQGKVAQNAAYQWSLT | -2.01 |
| HMQNYTTIIGVIELRLNDISYDNVRKRYHIGRSGITLIMDRYRDSGLSLEDLKQMTPEKVVDLFYPR | -2.55 |
| HMDINNTNFSRDVDNLLQNEEFIKWRIFRTKEWEDYWENFRKENPHMEDALQEAISRFNAVK | 0.264 |
| HMAPELRSDAQMRRLWALAKENGLDEVGFRAFISDATGREVESTKSLTATEAHRLIEELEAP | -0.0689 |
| HMEVAPEKVLEALNELPEIYKIVLNLYAVENMSHKEIAKKLGISLGSSKSRLSRGRVMLNTLLNR | -1.3 |
| HMKPTGWVRGDMGVVDKGQLSITQGTVNVRSGPGLSYEILDQVRRGDRFPVIKSQSGWHNISM | 0.249 |
| HMAPEEIPLDRVVRLVEQGRVESIVVTGERLEVTLQNGTVYGSTKENGVGFMETLDRYQVPLEQRDFSYEV | -0.148 |
| HMTVAEVEDRMEASRVRQALDAVGEPHRTTIALAYFTGLTHTEIAQRMGVPLGTVKSRIRDGMAKMRTHLG | -1.24 |
| HMNSVLPQEVKSSLNDFFTKYAPGSIAQKLINHASFTGGKVVVTGVELTQTQADDLKKAFKDKFF | -0.00219 |
| HMDEPVDRLSPREQEVLALMAEGRSNAAIAHRLSITEKAVAKHINSIFTKLDLPLDEDDHRRVRAVLAWLR | -1.33 |
| HMSTPTVDTKTKLDLYNLLYKKDLNYLDAYNFVLDNFGSDNIDIMFKMLGLDFTNWVIENKPE | 0.139 |
| HMFPSLSPEEQAVVDVLQRNNDLQINMLSVQSGLTISRLTALLFQLEMKGVIKPLAGGMYHLL | -0.711 |
| HMLPPVFLTIDANENVIVRKDGEPVQTLNKFELGAFARSQAENSAEQPVVLAADKSIKYEVVMEVI | 0.192 |
| HMDLRIKEIMSERNVTSAWLAEKVGISKVAVSNIVTGKSSPSLDNLLKIADALNVSITTLIG | -2.6 |
| HMVTEKPLYRDELMDHDTVWVEPISMDSHLRMELRGWYHVKNRFVENEVGQRFYFDFYDIKWLAFTNGP | -5.45 |
| HMGGYVTGTIDLTKFGYAFVITEESEDDVFVAARNLNTALHGDQVKVLLYARHKGKRPEGEVVEIISRSRA | -2.35 |
| HMTNKSKQRRNEILRASQELFNKKGFHDTSINDIMRRVGAAKGVFYYYFETKDQILDTLIEQHIA | -0.978 |
| HMAVVEVATTTATEYKVEKGHHFKVGDFVMFKTGAKSYAITAIDTTSPIFDKITVGTTLGEAIPVGGTLM | -1.62 |
| HMKRPEPESPEAERRSQRAADWLVRRDRGLTAAEQDEFLQWLAIDPRHGEWFALHRSVVGEFSA | -0.081 |
| HMQDVKRYLVNSNQLNVRTGPGKEFEISESLNKGDAVTLLHKESNGWWEVITSTGQGYVYSSMLTKDPW | -0.735 |
| HMSEYILATNDGEFLRITSYSKEEGGMLVWEKTSSIVSAEHKVIPYSQIINIKDRNGDVVWDKD | -0.988 |
| HMEDPFATLGVHREASLDEIKRAYRRLAMFWHPDRNPEAVAGTEFKRVHAAYELLLDPQRLAEWQQAQAT | -0.19 |

| Sequence | soluble fraction (log2) |
| --- | --- |
| HMEQVKFFDAKVITTPPNRLKTRYTPAGNLRPEADWLQSGAIVPVYETSGAGWYRIGYQTWASAEWMQRLD | -2.8 |
| HMGRENGTVKWFNTSKGFGFITRDDGGDVFVHFRSIQGEGHRALQEGQRVSYVVANRDKGLQAEDVTILN | -0.277 |
| HMRFANGHLIWDTIIELRNAERRINRRALADLTGLKPGVVDDHVERWIEKDQLRRAGNGELEVV | -1.36 |
| HMKNSAAKETILAFLKKNGGELFTQMQIIEKFQKMIPAPVLRITLEELLNKGQVEITSKGKYYLSVKGS | -2.08 |
| HMRDPFDALSARERAVASLVQRGLRNKEVASELGLTEGTVKVHLHKVFDKLGIRGRTELILLAQER | -1.35 |
| HMQKYEDIINVTRERLQNKFYSQTVIPTDDDIYIWLDKVAILEEIKLSKEDRQMLFNLLKKEAT | -1.35 |
| HMKEATTSPLDGIPGIGSKRKKALLSHFGSARSVARADIPDLMRVDGISRQVAETIYGWFHN | -0.417 |
| HMEKYNIIVDNEDNFRLDKIIALNMKDLSRTMIQEMINRGLVSVNGKITKASYKTKLNDQIEIMIED | -0.599 |
| HMEEVIEVEGKITAVLPSTMFRAELENGHQVLAHISGKLRKHFIKITVGDIVKMEMSTQDLQKARIV | -0.411 |
| HMQTYTYYIAKNDISIGQKITPDMLIEKQVNLGDSKDRYLSREQLETGKYIAVRQIPAGELISSASANE | 0.102 |
| HMGKPPNNRIHRAKRDYALNLVKEHYPDFGPTLAAEKLAEHHGFTVSRETLRKWMIEDGIWLSRKQRR | -0.475 |
| HMPLLADLPNLLRKVLKQHPGRVVDVDLERGRQGREIYHVRVLQENGQVRGLFVDASTGELVS | -0.938 |
| HMELLEVSVIIREADSTGWSAARQGMEQAAADLGAELRFLTLSQSNSAEEQRSLLAREVEGGADAVVLV | -0.57 |
| HMHPELSDSQRTLIALMASGLKDEAIAVEMGVGARTVRRKVQELYELLGVRTRFQAGVAANQRGW | -2.34 |
| HMPNLAAAIGARVTIRLREASGGFRDIVGTLQRFGDGVNELLNSKGQIISFSEDEIAIWREIK | -3.33 |
| HMQSMSADDWSEKARVLMSAGIIVMGQEAKEKILNLKSLVPLIEAASASNVSMIDSRTFDELLMIIP | -2.46 |
| HMKVWYAGINAQRVGPMTLGAMEQQIRYGRVLFSTLIWKSPMPQWVPAGDVPELRRLLDEHMLNQMP | -0.841 |
| HMDLDEELDFLSDADESATKLDLARAYIDMGDKDGARDILAEVLEEGRSEQKREAQALLDSI | 0.249 |
| HMTTQVPYTAKLININGGSVVNFRKEPGMNTTIIRTYPVGTEVTVLETGVNWSKVEIDGVTGYVSSYFL | -2.33 |
| HMPEKKKYGDFVSMTEEEYGKLVSEYGQEAAKRMVEILNNYKGATGKPYKSDYLAILNWVVKRIKEE | -0.0863 |
| HMVAEPVYGKVTEGPLNVRSAPSTDSEKVDSFSTGKVLTILETLDGWYKVEEGYVSADYVTIIDAAEAASS | -0.162 |
| HMNAEWMFDARKIPGLVMNYLRRIAVRAIEEKHYSPELVADLFGIDRTSIYDWLRKYRQQGEEALDTRKA | -1.28 |
| HMNDYNLTDREKEVLTFLFQGLEYKEIGMKMSVSPNTIRNHISNIYKKLHVTSKTQAIRVFLNN | -4.09 |
| HMAQISDEGLLRGLIVEMFEANPAVVEELLGGRDRKKGFVIGQIMKKTKGMANPALLDQLFYEELEKL | -1.1 |
| HMTDEEKENLREKMLEAGFPLLKQYGMTHTSVAKITQAAGIAVGTFYSFWKNKEAYMADLIGYHRR | -1.27 |
